Measurements published in patent US20230340106A1 (published 2023).
Numbering of substitutions follows the chain as printed.

B1: 16C3 (antibody, V domains shown)
VH: QVQLVQSGGGVVQPGRSLRLSCAASGFTFSNYAMNWVRQAPGKGLEWVTLISYDGSQKYYADSVKGRFTTSRDNSKNTLYLQMNSLRAEDTAVYYCARDSTTLGAFDVWGQGTMVTVSS
VL: SYELTQPPSLSVSPGQTATISCSGDAFPRKFAYWYQQKSGQAPVLVIYEDTRRPSGIPERFSGSSSGTMATLTISGAQVEDEADYFCYSTDTTGTHRVFGGGTKLTVL
B2: F4.7.8 (antibody, V domains shown)
VH: not shown
VL: AIQLTQSPSSLSASVGDRVTITCQASQDIFNLLNWYRQKPGKAPDLLVYRASNLETGVPSRFSGSGSGTDFTFTISSLQPEDVGTYYCQQSANLPLTFGGGTKVEIK
notes: Only the variable domains are tied to the clone
B3: recombinant IL-2Rβ (receptor, UniProt P14784 27-239, looked up)
chain: AVNGTSQFTCFYNSRANISCVWSQDGALQDTSCQVHAWPDRRRWNQTCELLPVSQASWACNLILGAPDSQKLTTVDIVTLRVLCREGVRWRVMAIQDFKPFENLRLMAPISLQVVHVETHRCNISWEISQASHYFERHLEFEARTLSPGHTWEEAPLLTLKQKQEWICLETLTPDTQYEFQVRVKPLQGEFTTWSPWSQPLAFRTKPAALGKD
modifications: biotin labeled
notes: also called CD122; IL2Rb
B4: recombinant IL-2Rα (receptor, UniProt P01589 22-213, looked up)
chain: ELCDDDPPEIPHATFKAMAYKEGTMLNCECKRGFRRIKSGSLYMLCTGNSSHSSWDNQCQCTSSATRNTTKQVTPQPEEQKERKTTEMQSPMQPVDQASLPGHCREPPPWENEATERIYHFVVGQMVYYQCVQGYRALHRGPAESVCKMTHGKTRWTQPQLICTGEMETSQFPGEEKPQASPEGRPESETSC
modifications: biotin labeled
notes: also called IL-2α; CD25
B5: F5.1.11 (antibody, V domains shown)
VH: QLQLQESGPGLVKPSQTLSLTCTVSGGSISSGGYYWSWIRQHPGKGLEWIGYIYYSGSTYYNPSLKSRVTISVDTSKNQFSLKLSSVTAADTAVYYCARTPTVTGDWFDPWGRGTLVTVSS
VL: NFMLTQPHSVSESPGKTVTISCTRSSGSIASNYVQWYQQRPGSSPTTVIYEDNQRPSGVPDRFSGSIDSSSNSASLTISGLKTEDEADYYCQSYDSSNVVFGGGTKLTVL
B6: F5.1.11.02 (antibody, V domains shown)
VH: B5 VH with Y55K, T59A, N62S
VL: B5 VL with S93T, S97I, N98D, V100Y
notes: also called F5111.2; 5.1.11.2
B7: F5.1.11.04 (antibody, V domains shown)
VH: B5 VH with T59N, Y61W
VL: B5 VL with S96T, S97R, N98D
B8: F4.7.6 (antibody, V domains shown)
VH: B5 VH with Q1E, L2V, R113Q
VL: B5 VL with N98T
B9: F4.7.062 (antibody, V domains shown)
VH: B5 VH with L2V, R113Q
VL: B5 VL
B10: F5.1.9.5 (antibody, V domains shown)
VH: EVQLVESGPGLVKPSETLSLTCAVSGYSISSGYYWGWIRQPPGKGLEWIGLSYHTRSTYYDPSLKSRVTISVDTSKNQFSLKLSSVTAADTAVYYCAREAYSDRAFDIWGQGTMVTVSS
VL: B5 VL with V18I, N32D, T46S, E51A, G58E, K82M, S97N, N98I, V100I
B11: F5.1.11.08 (antibody, V domains shown)
VH: B5 VH with Y55K, T59N, Y61W
VL: B5 VL with S93T, S97I, N98D, V100Y
B12: d1C7 (antibody, V domains shown)
VH: QVQLVQSGAEVKKPGSSVKVSCKASGGTFSSYAISWVRQAPGQGLEWMGGIIPIFGTANYAQKFQGRVTITADESTSTAYMELSSLRSEDTAVYYCARVDRYYNWNYFLGSFDYWGQGTLVTVSS
VL: SYVLTQPPSVSVAPGKTARITCGGNNIRSKSVHWYQQKPGQAPVVVIYYDSDRPSGIPERISGSNSGNTATLTISRVEAGDEADYFCQVWDSSSDHHVFGGGTKLTVL
notes: Only the variable domains are tied to the clone; also called clone d1C7

Key:
[1] = molecular target: T1, human IL-2 (recombinant IL-2, Humanzyme) (human, UniProt P60568 21-153); assay: SPR as in Example 1 (value as in Table 3)
T1 construct: It may include the signal peptide; also called hIL-2; interleukin-2
Protocol: (§1) Experiments were performed at 25° C. using a 30 μL/minute flow rate in 0.01 M HEPES pH 7.4, 0.15 M NaCl and 0.005% v/v surfactant P20 (HBS-P) buffer. After each cycle, the chip surface was regenerated with 3 M MgCl₂ and new antibody captured. […] Data were analyzed using the Biacore T200 Evaluation software, the signal from the adjacent control flow cell with only the capture antibody immobilized was background subtracted along with buffer only injections for each antibody. A 1:1 Langmuir binding model was used to fit all binding curves.

[2] = molecular target: T2, recombinant cynomolgus monkey (Macaca fascicularis) IL-2 (cynomolgus monkey (Macaca fascicularis), UniProt Q29615 21-154); assay: SPR, IgG captured, cyno IL-2 1-100 nM; 1:1 Langmuir fit or steady-state affinity
T2 construct: also called cyno IL-2; cynomolgus monkey IL-2
Protocol: as §1
(§2) A 1:1 Langmuir binding model was used to fit binding curves or the steady-state affinity constant calculated from a concentration-response curve.

[3] = molecular target: T1, human IL-2 (recombinant IL-2, Humanzyme); assay: SPR (Biacore T200), IgG captured by anti-human IgG, IL-2 injected, 25 C, 1:1 Langmuir fit
Protocol: as §1

d1C7/IL-2 complex = molecular target: T3, d1C7/IL-2 complex (human, UniProt P60568 21-153); assay: SPR (Biacore T200), complex injected over biotinylated receptor on a streptavidin chip
T3 construct: also called clone d1C7/IL-2 complex
Protocol: (§3) Experiments were performed at 25° C. using a 10 μL/minute flow rate in 10 mM HEPES (pH 7.4), 150 mM NaCl and 0.005% v/v Surfactant P20 buffer. […] Data was background subtracted using the adjacent control flow cell and buffer only injections.

IL-2/F5.1.11 Fab complex = IL-2/F5.1.11 Fab complex (human, UniProt P60568 21-153); assay: SPR (Biacore T200), equilibrium analysis, 1-500 nM IL-2 pre-complexed with excess Fab over biotinylated IL-2Rα
Protocol: as §3, with “(pH7.4),” for “(pH 7.4),”, “injections. The affinity of the interaction was calculated from concentration-response relationship at equilibrium.” for “injections.”

[4] = molecular target: T1, human IL-2 (recombinant IL-2, Humanzyme); assay: SPR as in Example 1 (IgG captured, IL-2 injected)
Protocol: as §1

[5] = molecular target: T2, recombinant cynomolgus monkey (Macaca …); assay: SPR, IgG captured, cyno IL-2 1-100 nM; concentration-response insufficient to calculate the affinity
Protocol: as §1, §2

[6] = molecular target: T1, human IL-2 (recombinant IL-2, Humanzyme); assay: SPR as in Example 1 (value as in Table 4)
Protocol: as §1

[7] = molecular target: T1, human IL-2 (recombinant IL-2, Humanzyme); assay: SPR as in Example 1; reference is parental F5.1.11
Protocol: as §1

[8] = molecular target: T1, human IL-2 (recombinant IL-2, Humanzyme); assay: method not stated in the sentence (presumably SPR as in Example 1)

T1 sequence (P60568 21-153 limits assumed): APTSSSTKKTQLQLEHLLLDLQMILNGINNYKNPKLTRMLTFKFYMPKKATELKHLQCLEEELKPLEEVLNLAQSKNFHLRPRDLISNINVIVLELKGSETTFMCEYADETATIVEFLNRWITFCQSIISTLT
T2 sequence (Q29615 21-154 limits assumed): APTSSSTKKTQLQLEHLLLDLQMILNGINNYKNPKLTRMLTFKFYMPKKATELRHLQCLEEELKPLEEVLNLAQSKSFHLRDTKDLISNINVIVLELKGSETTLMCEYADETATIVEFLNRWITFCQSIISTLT
Sequence of IL-2/F5.1.11 Fab complex (P60568 21-153 limits assumed, one chain of several): as the sequence (P60568 21-153 limits assumed) above
T3 sequence (P60568 21-153 limits assumed, one chain of several): as the sequence (P60568 21-153 limits assumed) above

Row | Binder | Kd [1] | Kd [2] | Kd [3] | koff [3] | kon [3] | Kd [4] | koff [4] | kon [4] | also measured
1 | B1 | 0.637 nM | 0.516 nM | 0.637 nM | 0.000619 s⁻¹ | 989000 M⁻¹ s⁻¹ | – | – | – | –
2 | B2 | 13.4 nM | 92.4 nM | 13.4 nM | 0.0031 s⁻¹ | 231000 M⁻¹ s⁻¹ | – | – | – | –
3 | B3 | – | – | – | – | – | – | – | – | binding result (d1C7/IL-2 complex): no binding
4 | B4 | – | – | – | – | – | – | – | – | Kd (IL-2/F5.1.11 Fab complex): 70.1 nM
5 | B5 | 3.12 nM | – | 3.12 nM | 0.00688 s⁻¹ | 2.21e+06 M⁻¹ s⁻¹ | 1.88 nM | 0.00711 s⁻¹ | 3.78e+06 M⁻¹ s⁻¹ | binding result [5]: binds
6 | B6 | – | ~211 nM | – | – | – | 0.114 nM | 0.000574 s⁻¹ | 5.05e+06 M⁻¹ s⁻¹ | Kd [6]: 0.114 nM; fold increase of apparent binding affinity over parental F5.1.11 [7]: 16 fold
7 | B7 | – | – | – | – | – | 0.624 nM | 0.000458 s⁻¹ | 734000 M⁻¹ s⁻¹ | –
8 | B8 | – | – | 3.03 nM | 0.00738 s⁻¹ | 2.44e+06 M⁻¹ s⁻¹ | – | – | – | –
9 | B9 | – | – | 1.54 nM | 0.0058 s⁻¹ | 3.77e+06 M⁻¹ s⁻¹ | – | – | – | –
10 | B10 | – | – | – | – | – | – | – | – | Kd [8]: 0.663 nM; koff [8]: 0.000818 s⁻¹; kon [8]: 1.23e+06 M⁻¹ s⁻¹
11 | B11 | – | – | – | – | – | 0.205 nM | 0.000453 s⁻¹ | 2.21e+06 M⁻¹ s⁻¹ | –
12 | B12 | 0.536 nM | ≥ 108 nM | 0.536 nM | 0.000607 s⁻¹ | 1.13e+06 M⁻¹ s⁻¹ | – | – | – | –
